Earlier results on one substance are cited in patent US9879249B2, “Aldehyde-tagged protein-based drug carriers and methods of use” (Redwood Bioscience, Inc., priority 2009, dated 2018).

The conditions of the data set: calcitonin peptide alone, unconjugated.

Calcitonin: the absorption half-life was 10 to 15 min and the elimination half-life is 50 to 80 min.
